Residue numbers refer to the chain shown, from its start. Numbers in names are those of the source.
T1: human FcγR2b-ECD-His (human, UniProt P31994 46-217)
T1 construct: His-tagged fusion made in house (UniProt P31994); also called FcγRIIb; Fc-receptor IIb
T1 sequence: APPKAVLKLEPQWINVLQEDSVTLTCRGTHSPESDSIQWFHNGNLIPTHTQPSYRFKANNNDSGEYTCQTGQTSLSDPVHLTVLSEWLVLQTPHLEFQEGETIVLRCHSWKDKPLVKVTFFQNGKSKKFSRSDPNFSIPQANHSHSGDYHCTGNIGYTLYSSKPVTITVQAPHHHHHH

T2: human FcγR2a-ECD-His (human, UniProt P12318 34-208)
T2 construct: His-tagged fusion made in house (UniProt P12318); The SPR method names only 'Fc-receptors IIa, IIb, and IIIa'; also called FcγRIIa; Fc-receptor IIa
T2 chain: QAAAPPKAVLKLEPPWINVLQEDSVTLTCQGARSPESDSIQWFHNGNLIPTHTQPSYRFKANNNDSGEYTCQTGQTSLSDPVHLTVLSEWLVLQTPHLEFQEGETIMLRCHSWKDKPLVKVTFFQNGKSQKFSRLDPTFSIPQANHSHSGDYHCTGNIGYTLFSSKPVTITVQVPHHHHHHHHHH

T3: cynomolgus CD47-ECD-Avi-His (cynomolgus monkey)
T3 construct: also called recombinant cynomolgus monkey CD47-avi-his protein
T3 chain: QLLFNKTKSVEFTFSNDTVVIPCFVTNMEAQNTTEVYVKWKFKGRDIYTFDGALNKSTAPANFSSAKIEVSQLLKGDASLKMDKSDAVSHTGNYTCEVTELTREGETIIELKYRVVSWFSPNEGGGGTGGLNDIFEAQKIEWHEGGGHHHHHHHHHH

B1: BEAT CD38/CD47-48 (bispecific antibody, human IgG1, kappa)
heavy 1: EVQLVESGGGLIQPGGSLRLSCAASGFTLSRNTMHWVRQAPGKGLEWVSVIYQSGVTRYADSVKSRFTISRDNSKNTLYLQMNSLRAEDTAVYYCARGRYGVAGGPGYAFDVWGQGTLVTVSSASTKGPSVFPLAPSSKSTSGGTAALGCLVKDYFPEPVTVSWNSGALTSGVHTFPAVLQSSGLYSLSSVVTVPSSSLGTQTYICNVNHKPSNTKVDKKVEPKSCDKTHTCPPCPAPELLGGPDVFLFPPKPKDTLMISRTPEVTCVVVDVSHEDPEVKFNWYVDGVEVHNAKTKPREEQYNSTYRVVSVLTVLHQDWLNGKEYKCKVNNKALPAPEEKTISKAKGQPREPAVYTLPPSREEMTKNQVKLVCLVTGFYPSDIAVEWESSGQPENNYYTTPPMLDSDGSFSLVSWLNVDKSRWQQGNIFSCSVMHEALHNRFTQKSLSLSPG
heavy 2: not shown
light: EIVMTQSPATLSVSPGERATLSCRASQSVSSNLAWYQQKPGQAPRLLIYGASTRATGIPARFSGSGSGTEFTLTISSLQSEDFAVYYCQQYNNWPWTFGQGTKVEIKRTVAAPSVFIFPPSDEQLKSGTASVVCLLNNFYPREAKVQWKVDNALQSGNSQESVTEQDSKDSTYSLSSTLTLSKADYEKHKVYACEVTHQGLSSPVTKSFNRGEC
notes: 2+1 biparatopic format; the number of light chains follows from the three Fab domains; also called BEAT CD38/47-48; BEAT 38/47-48
B2: BEAT CD38/CD47-32 (bispecific antibody, human IgG1, kappa)
heavy 1: B1 heavy 1 with D245S, E275D, S304A, E338I, E339A
heavy 2: QVQLVQSGAEVKKPGSSVKVSCKASGLPDATYAIGWVRQAPGQGLEWMGRIIPRLDAEHYAQKFQGRVTITADESTSTAYMELSSLRSEDTAVYYCARGLGYYLYSSYYFDIWGQGTLVTVSSASTKGPSVFPLAPSSKSTSGGTAALGCLVKDYFPEPVTVSWNSGALTSGVHTFPAVLQSSGLYSLSSVVTVPSSSLGTQTYICNVNHKPSNTKVDKKVEPKSCGGGGSGGGGSGGGGSQVQLVQSGAEVKKPGSSVKVSCKASGLPDATYAIGWVRQAPGQGLEWMGRIIPRLDAEHYAQKFQGRVTITADESTSTAYMELSSLRSEDTAVYYCARGLGYYLYSSYYFDIWGQGTLVTVSSASTKGPSVFPLAPSSKSTSGGTAALGCLVKDYFPEPVTVSWNSGALTSGVHTFPAVLQSSGLYSLSSVVTVPSSSLGTQTYICNVNHKPSNTKVDKKVEPKSCDKTHTCPPCPAPELLGGPSVFLFPPKPKDTLMISRTPEVTCVVVDVSHDDPEVKFNWYVDGVEVHNAKTKPREEQYNATYRVVSVLTVLHQDWLNGKEYKCKVNNKALPAPIAKTISKAKGQPREPEVATFPPSRDELTKNQVTLVCLVTGFYPSDIAVEWESNGQPENNYKTDPPLLESQGSFALSSRLRVDKSRWQQGNVFSCSVMHEALHNHYTQKSLSLSPG
light: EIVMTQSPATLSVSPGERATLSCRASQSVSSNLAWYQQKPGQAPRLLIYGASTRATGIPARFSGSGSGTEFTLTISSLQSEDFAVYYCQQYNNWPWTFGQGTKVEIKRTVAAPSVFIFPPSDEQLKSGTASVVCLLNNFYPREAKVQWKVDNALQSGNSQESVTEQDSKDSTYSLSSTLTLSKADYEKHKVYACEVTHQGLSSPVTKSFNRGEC
notes: 2+1 monoparatopic format; E269D + S298A + S324N + E333A in both heavy chains
B3: BEAT CD38/CD47-34 (bispecific antibody, human IgG1, kappa)
heavy 1: B1 heavy 1 with D245S, E275D, S304A, E338I, K340A
heavy 2: B2 heavy 2 with A580E, K581A
light: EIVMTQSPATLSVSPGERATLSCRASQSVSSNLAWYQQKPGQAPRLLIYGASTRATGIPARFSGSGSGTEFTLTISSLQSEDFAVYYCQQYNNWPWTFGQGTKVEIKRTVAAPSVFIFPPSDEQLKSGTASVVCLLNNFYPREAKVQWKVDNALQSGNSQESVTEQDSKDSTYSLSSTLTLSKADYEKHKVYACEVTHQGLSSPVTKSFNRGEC
notes: 2+1 monoparatopic format; E269D + S298A + S324N + K334A in both heavy chains
B4: BEAT CD38/CD47-40 (bispecific antibody, human IgG1, kappa)
heavy 1: B1 heavy 1 with D245S, E275D, S304A, E338I, K340A
heavy 2: not shown
light: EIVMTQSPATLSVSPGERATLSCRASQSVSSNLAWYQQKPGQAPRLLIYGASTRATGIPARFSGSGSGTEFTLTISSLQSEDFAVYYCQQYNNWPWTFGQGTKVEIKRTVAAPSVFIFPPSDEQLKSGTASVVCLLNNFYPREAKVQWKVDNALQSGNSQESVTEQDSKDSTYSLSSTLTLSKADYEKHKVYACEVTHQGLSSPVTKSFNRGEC
notes: 2+1 biparatopic format; E269D + S298A + S324N + K334A in both heavy chains
B5: anti-CD47-UCP02-B3 FAB (Fab, V domains shown)
VH: QVQLVQSGAEVKKPGSSVKVSCKASGGRFRLYGINWVRQAPGQGLEWMGGISPIDGYAAYAQKFQGRVTITADESTSTAYMELSSLRSEDTAVYYCARSRRPYSASASYPGYGMDVWGQGTLVTVSS
VL: not shown
notes: human IgG1 Fab
B6: anti-CD47-UCP01-A1 FAB (Fab, V domains shown)
VH: QVQLVQSGAEVKKPGSSVKVSCKASGGFFRLYAFSWVRQAPGQGLEWMGGIIPTDGFVGYAQKFQGRVTITADESTSTAYMELSSLRSEDTAVYYCARSRYYRPYGEYYVVGYGFAYWGQGTLVTVSS
VL: not shown
notes: human IgG1 Fab
B7: anti-CD47-UCP02-H3 FAB (Fab, V domains shown)
VH: B6 VH
VL: not shown
notes: human IgG1 Fab
B8: anti-CD47-UCP01-G2 FAB (Fab, V domains shown)
VH: EVQLVESGGGLIQPGGSLRLSCAASGFTVSNSYMTWVRQAPGKGLEWVSVIYKYGKTSYADSVKGRFTISRDNSKNTLYLQMNSLRAEDTAVYYCARGLTVSPYWGGAFDYWGQGTLVTVSS
VL: not shown
notes: human IgG1 Fab
B9: anti-CD47-UCP01-B3 FAB (Fab, V domains shown)
VH: EVQLVESGGGLIQPGGSLRLSCAASGFTFSNNYMSWVRQAPGKGLEWVSVIYKKGFTNYADSVKGRFTISRDNSKNTLYLQMNSLRAEDTAVYYCARGLSVDKYDGGPFDYWGQGTLVTVSS
VL: not shown
notes: human IgG1 Fab
B10: anti-CD47-UCP02-C1 FAB (Fab, V domains shown)
VH: QVQLVQSGAEVKKPGSSVKVSCKASGGFFSAHTISWVRQAPGQGLEWMGRITAVRGVPTYAQKFQGRVTITADESTSTAYMELSSLRSEDTAVYYCARASYGGPRYYWDGLDIWGQGTLVTVSS
VL: not shown
notes: human IgG1 Fab
B11: anti-CD47-UCP01-A3 FAB (Fab, V domains shown)
VH: EVQLVESGGGLIQPGGSLRLSCAASGFTFTNSWMSWVRQAPGKGLEWVSVIYKYGFTEYADSVKGRFTISRDNSKNTLYLQMNSLRAEDTAVYYCARGSSIAAYAYAAPYRGGWMDVWGQGTLVTVSS
VL: not shown
notes: human IgG1 Fab
B12: anti-CD47-UCP01-G1 FAB (Fab, V domains shown)
VH: EVQLLESGGGLVQPGGSLRLSCAASGFTFSNYAMAWVRQAPGKGLEWVSVISVEGGLTVYADSVKGRFTISRDNSKNTLYLQMNSLRAEDTAVYYCARGSRDSRGKYGAFDVWGQGTLVTVSS
VL: not shown
notes: human IgG1 Fab
B13: anti-CD47-UCP01-A2 FAB (Fab, V domains shown)
VH: EVQLLESGGGLVQPGGSLRLSCAASGFTFSRFAMGWVRQAPGKGLEWVSIISPNGHVTAYADSVKGRFTISRDNSKNTLYLQMNSLRAEDTAVYYCARDGLSVSSQGVAFDYWGQGTLVTVSS
VL: not shown
notes: human IgG1 Fab

Assays:
[1] = target: T4, CD47 on cells (Daudi cells; human red blood cells) (human, UniProt Q08722 19-323); experiment: blocking of SIRPα-mIgG1 Fc binding to CD47 on Daudi cells, image-based readout with anti-mouse IgG Fc Alexa Fluor 647, % inhibition; the sheet calls the half-maximal value EC50
T4 construct: whole, on cells; These cells also carry CD38

[2] = target: T5, CD38 on cells (Daudi, Raji, KMS-12-PE, NCI-H929, KMS-12-BM) (human, UniProt P28907); experiment: flow cytometry on KMS-12-BM cells (carry CD38 and CD47), anti-human IgG-Fc PE, GeoMFI; apparent whole-cell value, the anti-CD47 arm also binds
T5 construct: full-length, cell surface; These cells also carry CD47

[3] = target: T5, CD38 on cells (Daudi, Raji, KMS-12-PE, …); experiment: flow cytometry on Raji cells (carry CD38 and CD47), anti-human IgG-Fc PE, GeoMFI; apparent whole-cell value, the anti-CD47 arm also binds
human FcγR2b-ECD-His = target: T1, human FcγR2b-ECD-His; experiment: SPR steady state, antibody on protein G chip, receptor analyte; reference trastuzumab control IgG1
human FcγR3a-ECD-His = target: T6, human FcγR3a-ECD-His (human, UniProt P08637 17-193); experiment: as above
T6 construct: His-tagged fusion made in house (UniProt P08637); also called FcγRIIIa; Fc-receptor IIIa

human FcγR2a-ECD-His = target: T2, human FcγR2a-ECD-His; experiment: as above
[4] = target: T7, Avi-Tagged FcRn (Acrobiosystems, FCM-H82W2) (human, UniProt P55899 24-297, biotinylated (captured with Biotin CAPture kit)); experiment: SPR steady state, FcRn captured on CAP chip, antibody analyte; reference trastuzumab control IgG1
T7 construct: also called human neonatal Fc receptor

[5] = target: T5, CD38 on cells (Daudi, Raji, KMS-12-PE, …); experiment: flow cytometry on Daudi cells (carry CD38 and CD47), anti-human IgG-Fc PE, GeoMFI; apparent whole-cell value, the anti-CD47 arm also binds
[6] = target: T5, CD38 on cells (Daudi, Raji, KMS-12-PE, …); experiment: flow cytometry on NCI-H929 cells (carry CD38 and CD47), anti-human IgG-Fc PE, GeoMFI; apparent whole-cell value, the anti-CD47 arm also binds
[7] = target: T5, CD38 on cells (Daudi, Raji, KMS-12-PE, …); experiment: flow cytometry on KMS-12-PE cells (carry CD38 and CD47), anti-human IgG-Fc PE, GeoMFI; apparent whole-cell value, the anti-CD47 arm also binds
[8] = target: Avi-Tagged FcγRIa (Acrobiosystems, FCA-H82E8) (UniProt P12314 16-288, biotinylated (captured with Biotin CAPture kit)); experiment: SPR, FcγRIa captured on CAP chip, antibody analyte; reference trastuzumab control IgG1
[9] = target: T3, cynomolgus CD47-ECD-Avi-His; experiment: SPR, CD47 amine-coupled, Fab analyte, 1:1 fit
human CD47-ECD-Avi-His = target: T8, human CD47-ECD-Avi-His (human); experiment: SPR, CD47 amine-coupled, Fab analyte, 1:1 fit
T8 construct: also called recombinant human CD47-avi-his protein; recombinant human CD47 protein

Binder | fold gain in affinity vs control (human FcγR2b-ECD-His) [fold] | fold gain in affinity vs control (human FcγR3a-ECD-His) [fold] | fold gain in affinity vs control (human FcγR2a-ECD-His) [fold] | fold gain in affinity vs control [8] [fold] | Kd [9] [nM] | Kd (human CD47-ECD-Avi-His) [nM] | further results
B1 | 16 | 10 | 7 | 864 | – | – | IC50 (read off the curve) [1]: ~0.05 nM; EC50 (read off the curve) [2]: ~30 nM; EC50 (read off the curve) [3]: ~10 nM; KD ratio [BEAT/Control IgG1] [4]: 0.2 ratio; EC50 (read off the curve) [5]: ~8 nM; EC50 (read off the curve) [6]: ~20 nM; EC50 (read off the curve) [7]: ~6 nM
B2 | 1 | 3 | 0.5 | 12 | – | – | –
B3 | 1 | 4 | 0.4 | 874 | – | – | –
B4 | 1 | 4 | 0.4 | 4510 | – | – | KD ratio [BEAT/Control IgG1] [4]: 0.3 ratio
B5 | – | – | – | – | 1120 | 1010 | –
B6 | – | – | – | – | 15.9 | 292 | –
B7 | – | – | – | – | 17.8 | 455 | –
B8 | – | – | – | – | 190 | 183 | –
B9 | – | – | – | – | 340 | 316 | –
B10 | – | – | – | – | 113 | 193 | –
B11 | – | – | – | – | 1260 | 1170 | –
B12 | – | – | – | – | 214 | 136 | –
B13 | – | – | – | – | 1070 | 822 | –
